In patent publication US20040132093A1 (AVENTIS PHARMA S A, published 2004):

Legend:
[1] = biological target: T1, OBRs-YFP fusion protein (short form of the leptin receptor fused at its C-terminal end to YFP) (human); assay: BRET in living cells, fusion proteins expressed in equimolar amounts
T1 construct: also called OB-R-YFP; acceptor fusion protein
Protocol: 48 hours after transfection, HeLa, COS and HEK 293 cells expressing OBR were detached and washed with PBS. 1-2×10⁵ cells were distributed into 96-well optical plates (Packard Instrument Company, Meriden, Conn.) in the presence or absence of ligands, at 25° C. Membranes prepared from cells expressing OBR were used for the measurements of BRET. The substrate, coelenterazine h (Molecular Probes, Eugene, Oreg.), was added at a final concentration of 5 μM and the reading was carried out with a Fusion™ fluoro/luminometer (Packard Instrument Company, Meriden, Conn.), which permits the sequential integration of the luminescence signals detected with two filters (Luc filter: 485+10 nm; YFP filter: 530±12.5 nm). The BRET ratio is defined as the difference in the emission at 530 nm/485 nm of the cotransfected Luc and YFP fusion proteins and the emission at 530 nm/485 nm of the Luc fusion protein alone. The results are expressed in milliBRET units (mBU), 1 mBRET unit corresponding to the value of the BRET ratio multiplied by 1 000. The following ligands were used to determine the specificity of the assay: recombinant human erythropoietin (EPO), insulin (Ins), lipopolysaccharide (LPS, Sigma Aldrich, St. Louis, USA), recombinant human trombopoietin (TPO), GM-CSF, interleukin 3 (IL3), interleukin 6 (IL6), prolactin (PRL), SCF, EGF and TNFα. […]

[2] = biological target: T2, protein from fusion between YFP and the insulin receptor (Boute et al., 2001) (UniProt P06213 28-1382); assay: BRET in living cells coexpressing the fusion proteins
T2 construct: whole, on cells; Specificity control in BRET; also called insulin receptor-YFP; not shown: YFP

B1: OBRs-Luc fusion protein (short form of the leptin receptor fused at its C-terminal end to Renilla luciferase) (receptor)
chain: ASISARQEQKLISEEDLTRYPITPWRFKLSCMPPNSTYDYFLLPAGLSKNTSNSNGHYETAVEPKFNSSGTHFSNLSKTTFHCCFRSEQDRNCSLCADNIEGTTFVSTVNSLVFQQIDANWNIQCWLKGDLKLFICYVESLFKNLFRNYNYKVHLLYVLPEVLEDSPLVPQKGSFQMVHCNCSVHECCECLVPVPTAKLNDTLLMCLKITSGGVIFRSPLMSVQPINMVKPDPPLGLHMEITDDGNLKISWSSPPLVPFPLQYQVKYSENSTTVIREADKIVSATSLLVDSILPGSSYEVQVRGKRLDGPGIWSDWSTPRVFTTQDVIYFPPKILTSVGSNVSFHCIYKKENKIVPSKEIVWWMNLAEKIPQSQYDVVSDHVSKVTFFNLNETKPRGKFTYDAVYCCNEHECHHRYAELYVIDVNINISCETDGYLTKMTCRWSTSTIQSLAESTLQLRYHRSSLYCSDIPSIHPISEPKDCYLQSDGFYECIFQPIFLLSGYTMWIRINHSLGSLDSPPTCVLPDSVVKPLPPSSVKAEITINIGLLKISWEKPVFPENNLQFQIRYGLSGKEVQWKMYEVYDAKSKSVSLPVPDLCAVYAVQVRCKRLDGLGYWSNWSNPAYTVVMDIKVPMRGPEFWRIINGDTMKKEKNVTLLWKPLMKNDSLCSVQRYVINHHTSCNGTWSEDVGNHTKFTFLWTEQAHTVTVLAINSIGASVANFNLTFSWPMSKVNIVQSLSAYPLNSSCVIVSWILSPSDYKLMYFIIEWKNLNEDGEIKWLRISSSVKKYYIHDHFIPIEKYQFSLYPIFMEGVGKPKIINSFTQDDIEKHQSDAGLYVIVPVIISSSILLLGTLLISHQRMKKLFWEDVPNPKNCSWAQGLNFQKRTDILDPPARATMTSKVYDPEQRKRMITGPQWWARCKQMNVLDSFINYYDSEKHAENAVIFLHGNAASSYLWRHVVPHIEPVARCIIPDLIGMGKSGKSGNGSYRLLDHYKYLTAWFELLNLPKKIIFVGHDWGACLAFHYSYEHQDKIKAIVHAESVVDVIESWDEWPDIEEDIALIKSEEGEKMVLENNFFVETMLPSKIMRKLEPEEFAAYLEPFKEKGEVRRPTLSWPREIPLVKGGKPDVVQIVRNYNAYLRASDDLPKMFIESDPGFFSNAIVEGAKKFPNTEFVKVKGLHFSQEDAPDEMGKYIKSFVERVLKNEQ
notes: Expressed in COS, HeLa or HEK 293 cells; also assayed in membranes and extracts; also called OB-R-Luc; donor fusion protein
binding result [1]: binds | binding result [2]: no binding
